In US20120201826A1 (NOV IMMUNE S A, published 2012):

How the values were obtained:
[1] = target: T1, recombinant human RANTES (huRANTES, Peprotech) (human, UniProt P13501 24-91); assay: cell-based or functional assay
T1 sequence: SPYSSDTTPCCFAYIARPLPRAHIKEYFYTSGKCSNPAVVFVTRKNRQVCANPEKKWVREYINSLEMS

[2] = target: T2, huRANTES immobilized on glycosaminoglycan (biotin labeled heparin) (human, UniProt P13501 24-91); assay: ELISA: biotin-heparin on streptavidin plate, huRANTES captured on the heparin, IgG detected with anti-human IgG Fc-HRP, OD450; antibody concentration not given
T2 construct: also called huRANTES immobilized on GAG; huRANTES in the context of GAG
T2 sequence: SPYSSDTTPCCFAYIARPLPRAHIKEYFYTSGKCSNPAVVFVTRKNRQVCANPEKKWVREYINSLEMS

[3] = target: T1, recombinant human RANTES (huRANTES, …); assay: cell-based or functional assay; remark: listed apart in the source
[4] = target: T3, native human RANTES produced by THP1 cells (human, UniProt P13501 24-91); assay: cell-based or functional assay
T3 sequence: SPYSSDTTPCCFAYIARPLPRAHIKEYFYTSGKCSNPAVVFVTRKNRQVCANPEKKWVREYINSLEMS

B1: H11 antibody, IgG1 format (antibody, V domains shown)
VH: QVQLVQSGAEVKKPGSSVKVSCKASGGISDNYALSWVRQAPGQGLEWMGGFIPLVDTTNYAQRFQGRLTITADDSMSTVYMELRSLRSDDTAMYYCAREQVAVGPGPTSDRGPDGLDVWGQGTMVTVSS
VL: QSVLTQPSSVSGAPGHRVTISCTGSNSNLGADYDVHWYQQLPGSAPKLLIYDNNIRPSGVPARFSGSKSGTSASLAITGLQAEDEADYYCQSYDTGLTSSDVIFGGGTKLTVL
- Chemotaxis IC50 (nM), 1 nM huRANTES; L1.2-hCCR5 cells; IgG1 format [1]: 1.3 nM
- binding result [2]: no binding

B2: 3E7 scFv (scFv)
chain: QVQLVQSGAEVKKPGASVKVSCKVSGYTLNDFAMHWVRQAPGKGLEWMGGYVPEDGDTIYAQKFQGRVTMTEDTSTDTAYMELSSLRSEDTAVYYCATDPLYPPGLSPWGQGTTVTVSSSYVLTQPPSVSVAPGQTARITCGGNNIESKSVHWYQQKPGQAPVLVVYDDSDRPSGIPERFSGSNSGNTATLTISRVEAGDEADYYCQVWDSNTDHWVFGGGTKVTVL
- Chemotaxis IC50 (nM); L1.2 cells expressing hCCR5, 1 nM huRANTES; scFv format [3]: 0.47 nM

B3: 2D1 scFv (scFv)
chain: QVQLVQSGAEVKKPGASVKVSCKVSGYTLNDFAMHWVRQAPGKGLEWMGGYVPEDGDTIYAQKFQGRVTMTEDTSTDTAYMELSSLRSEDTAVYYCATDPLYSGSLSYWGQGTTVTVSSSYVLTQPPSVSVAPGQTARITCGGNNIESKSVHWYQQKPGQAPVLVVYDDSDRPSGIPERFSGSNSGNTATLTISRVEAGDEADYYCQVWDSNTDHWVFGGGTKVTVL
- Chemotaxis IC50 (nM); L1.2 cells expressing hCCR5, 1 nM huRANTES; scFv format [3]: 1.3 nM

B4: 7B5 scFv (scFv)
chain: QVQLVQSGAEVKKPGASVKVSCKVSGYTLNDFAMHWVRQAPGKGLEWMGGYVPEDGDTIYAQKFQGRVTMTEDTSTDTAYMELSSLRSEDTAVYYCATDPLYSGSLSYWGQGTTVTVSSSYVLTQPPSVSVAPGQTARITCGGNNIESKSVHWYQQKPGQAPVLVVYDDSDRPSGIPERFSGSNSGNTATLTISRVEAGDEADYYCQVWDSGPVWWIFGGGTKLTVL
- Chemotaxis IC50 (nM); L1.2 cells expressing hCCR5, 1 nM huRANTES; scFv format [3]: 1.6 nM

B5: 5E1 scFv (scFv)
chain: QVQLVQSGAEVKKPGASVKVSCKVSGYTLNDFAMHWVRQAPGKGLEWMGGYVPEDGDTIYAQKFQGRVTMTEDTSTDTAYMELSSLRSEDTAVYYCATDYLYIPSLSYWGQGTTVTVSSSYVLTQPPSVSVAPGQTARITCGGNNIESKSVHWYQQKPGQAPVLVVYDDSDRPSGIPERFSGSNSGNTATLTISRVEAGDEADYYCQVWDSNTDHWVFGGGTKVTVL
- Chemotaxis IC50 (nM); L1.2 cells expressing hCCR5, 1 nM huRANTES; scFv format [3]: 0.2 nM

B6: 4D8 scFv (scFv)
chain: QVQLVQSGAEVKKPGASVKVSCKVSGYTLNDFAMHWVRQAPGKGLEWMGGYVPEDGDTIYAQKFQGRVTMTEDTSTDTAYMELSSLRSEDTAVYYCATDPLYTPGLYVWGQGTTVTVSSSYVLTQPPSVSVAPGQTARITCGGNNIESKSVHWYQQKPGQAPVLVVYDDSDRPSGIPERFSGSNSGNTATLTISRVEAGDEADYYCQVWDSNTDHWVFGGGTKVTVL
- Chemotaxis IC50 (nM); L1.2 cells expressing hCCR5, 1 nM huRANTES; scFv format [3]: 0.08 nM

B7: 6A8 scFv (scFv)
chain: QVQLVQSGAEVKKPGASVKVSCKVSGYTLNDFAMHWVRQAPGKGLEWMGGYVPEDGDTIYAQKFQGRVTMTEDTSTDTAYMELSSLRSEDTAVYYCATDPLYPPGLQPWGQGTTVTVSSSYVLTQPPSVSVAPGQTARITCGGNNIESKSVHWYQQKPGQAPVLVVYDDSDRPSGIPERFSGSNSGNTATLTISRVEAGDEADYYCQVWDSNTDHWVFGGGTKVTVL
- Chemotaxis IC50 (nM); L1.2 cells expressing hCCR5, 1 nM huRANTES; scFv format [3]: 0.94 nM

B8: A9 antibody, IgG1 format (antibody, V domains shown)
VH: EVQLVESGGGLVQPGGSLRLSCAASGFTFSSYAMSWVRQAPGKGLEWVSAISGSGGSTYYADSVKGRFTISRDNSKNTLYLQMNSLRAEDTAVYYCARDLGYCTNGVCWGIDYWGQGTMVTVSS
VL: NFMLTQPHSVSESPGKTVTISCTRSSGSIADNYVQWYQQRPGSAPTTIIYDDDQRLSGVPDRFSGSIDTSSNSASLSISGLRTEDEADYYCQSYDDSNDVFGGGTKLTVL
- Calcium Flux IC50 (nM), 10 nM rhuRANTES; L1.2-hCCR5 cells; IgG1 format [1]: 3.3 nM
- Chemotaxis IC50 (nM), 1 nM huRANTES; L1.2-hCCR5 cells; IgG1 format [1]: 1 nM
- binding result [2]: no binding

B9: CG11 antibody, IgG1 format (antibody, V domains shown)
VH: QVQLVQSGTEVKKPGATVNVSCKISGHLFTDYYIHWVQQAPGKGLEWVGLIDPKDGEIQYAEKFQARVTITADTSTDTVYMELNSLRSEDTAVYYCATEVLSGIRVFPFDPWGQGTLVTVSS
VL: QSVLTQPPSVSGAPGQRVTISCTGSSSNIGAGYDVYWYQQFPGKAPKLLIYDTNNRPPGVPDRFSGSKSGTSASLAISGLQTEDEADYYCQSYDIALSNSNVVFGGGTKLTVL
- Calcium Flux IC50 (nM), 10 nM rhuRANTES; L1.2-hCCR5 cells; IgG1 format [1]: 9.5 nM
- Chemotaxis IC50 (nM), 1 nM huRANTES; L1.2-hCCR5 cells; IgG1 format [1]: 4.8 nM
- binding result [2]: no binding

B10: 1D9 antibody, IgG1 format (antibody, V domains shown)
VH: QVQLVQSGAEVKKPGASVKVSCKVSGYTLTEFAMHWVRQAPGKGLEWMGGFVPEDGETIYAQKFQGRVTMTEDTSTDTAYMELSSLRSEDTAVYYCATDPLYTPGLEPWGQGTTVTVSS
VL: SYVLTQPPSVSVAPGQTARITCGGNNIESKSVHWYQQKPGQAPVLVVYDDSDRPSGIPERFSGSNSGNTATLTISRVEAGDEADYYCQVWDSNTDHWVFGGGTKLTVLG
- Chemotaxis IC50 (nM), 0.2 nM huRANTES; L1.2-hCCR5 cells; IgG1 format [1]: 0.038 nM
- Chemotaxis IC50 (nM), 1 nM huRANTES; L1.2-hCCR5 cells; IgG1 format [1]: 0.35 nM
- Chemotaxis IC50 (nM), native huRANTES from THP1 cells; L1.2-hCCR5 cells; IgG1 format [4]: 0.033 nM

B11: E7 antibody, IgG1 format (antibody, V domains shown)
VH: QVQLVQSGAEVKKPGSSVKVSCKISGGISDNYALSWVRQAPGQGLEWMGAVIPLVETTSYAQRFQGRLTITADDSLNTLYMELGSLRSDDTAMYYCAREQVAVGPGPTSNRGPDGLDVWGRGTMVTVSS
VL: QSVLTQPPSVSGAPGQRVTISCTGSSSNIGDGYDVHWYQQLPGTAPKLLIYGNSNRPSGVPDRFSGSTSGTSASLAIRGLQSEDEADYYCGTWDDILNGWVFGGGTKLTVL
- Chemotaxis IC50 (nM), 1 nM huRANTES; L1.2-hCCR5 cells; IgG1 format [1]: 2.2 nM
- binding result [2]: no binding

B12: D1 antibody, IgG1 format (antibody, V domains shown)
VH: EVQLVQSGPEVKKPGATVKISCNVSAETFTDYYIHWVKQAPGRGLEWMGLVDSEEDGETLFAETFRGRVALTADRSTNTAYMELRSLRHDDTAVYYCAAEYGEYGFFQSWGQGTLVTVSS
VL: QSVLTQPPSVSGAPGQRVTISCTGSSSNIGADYDVNWYQQLPGTSPKLLIYGDINRPSGVPDRFSASKSGTSASLAITGLQAEDEADYYCQSFDNSLSGSVIFGGGTKLTVL
- Chemotaxis IC50 (nM), 1 nM huRANTES; L1.2-hCCR5 cells; IgG1 format [1]: 7 nM
- binding result [2]: no binding

B13: H6 scFv (scFv)
chain: QVQLVQSGAEVKRPGASVKVSCKVSGNTLSKQSMHWVRQAPGKGFEWMGSSNPEDDETLYAKKFQGRVTMTEDTSTDTAYLELSSLRSEDTAVYYCATDSQGFYYYYGMDVWGQGTLVTVSSQSVLTQPPSVSGAPGQRVTISCTGSSSNIGADYDVHWYQQLPGTVPKLLIYDNINRPSGVPDRFSGSKSGTSASLAITGLQAEDEADYYCQSYDSSLSGVLFGGGTKVTVL
- Chemotaxis IC50 (nM); L1.2 cells expressing hCCR5, 1 nM huRANTES; scFv format [3]: 25 nM

B14: H6 antibody, IgG1 format (antibody, V domains shown)
VH: QVQLVQSGAEVKRPGASVKVSCKVSGNTLSKQSMHWVRQAPGKGFEWMGSSNPEDDETLYAKKFQGRVTMTEDTSTDTAYLELSSLRSEDTAVYYCATDSQGFYYYYGMDVWGQGTLVTVSS
VL: QSVLTQPPSVSGAPGQRVTISCTGSSSNIGADYDVHWYQQLPGTVPKLLIYDNINRPSGVPDRFSGSKSGTSASLAITGLQAEDEADYYCQSYDSSLSGVLFGGGTKVTVL
- Calcium Flux IC50 (nM), 10 nM rhuRANTES; L1.2-hCCR5 cells; IgG1 format [1]: 9 nM
- Chemotaxis IC50 (nM), 1 nM huRANTES; L1.2-hCCR5 cells; IgG1 format [1]: 8.7 nM
- binding result [2]: no binding

B15: G2 scFv (scFv)
chain: QVQLVQSGAEVKKPGASVKVSCRASGYALTELSIHWVRQAPGKGLEWMGGFDPEDGETIYAQNFQGRVIMTEDTSTDTAYMELSSLKSEDTAVYYCATDLTGSRDSWGQGTLVTVSSQSVLTQPASVSGSPGQSITISCTGSRSDIGYYNYVSWYQQHPGKVPKLIIYDVTERPSGVSDRFSGSKSANTASLTISGLQAEDEADYYCSSFSSGDTFVVFGGGTKLTVL
- Chemotaxis IC50 (nM); L1.2 cells expressing hCCR5, 1 nM huRANTES; scFv format [3]: 62 nM

B16: E6 scFv (scFv)
chain: QVQLVQSGAEVEKPGASVKVSCRVSGYPLTEIAIHWVRQAPGKGLEWMGSFEPEDAEAIYAQRFQGRVTMTEETSANTAYMELSSLRSEDTAVYFCATDPYYASSGSNYMEVWGRGTLVTVSSNFMLTQPHSVSESPGKTVTISCTGSGGSISSNYVQWYRQRPGSAPSTVIYEDDQRPSGVPDRISGSIDSSSNSASLTISGLTTEDEADYYCHSYDGNNRWVFGGGTKLTVL
- Chemotaxis IC50 (nM); L1.2 cells expressing hCCR5, 1 nM huRANTES; scFv format [3]: 72 nM

B17: C8 antibody, IgG1 format (antibody, V domains shown)
VH: QVQLVESGGGVVQPGRSLRLSCAASGFTFSSYAMHWVRQAPGKGLEWVAVISYDGSNKYYADSVKGRFTISRDNSKNTLYLQMNSLRAEDTAVYYCARETFPHYYYYYMDVWGRGTLVTVSS
VL: SYVLTQPPSVSVAPGQTARITCEGDDTDIGTVNWYQQKPGQAPVLVISEDGYRPSGIPERFSGSNSGNTATLTISRVEAGDEADYYCQFWDVDSDHPVFGGGTQLTVLG
- Chemotaxis IC50 (nM), 0.2 nM huRANTES; L1.2-hCCR5 cells; IgG1 format [1]: 0.49 nM
- Chemotaxis IC50 (nM), 1 nM huRANTES; L1.2-hCCR5 cells; IgG1 format [1]: 2.1 nM
- Chemotaxis IC50 (nM), native huRANTES from THP1 cells; L1.2-hCCR5 cells; IgG1 format [4]: 1.6 nM

B18: E10 scFv (scFv)
chain: QVQLVESGGGVVQPGRSLRLSCAASGFTFSSYAMHWVRQAPGKGLEWVAVISYDGSNKYYADSVKGRFSISRDNSKNTLYLQMNSLRAEDTAVYYCARETFPHYYYYYMDVWGKGTMVTVSSSYVLTQPPSVSVAPGQTARISCGGGNFDDEGVHWYQQTPGQAPVLVVYDDTGRPSGIPERFSGSSSGNTATLTISRVEAGDEADYYCQAWDSSNDHPVFGGGTQLTVL
- Chemotaxis IC50 (nM); L1.2 cells expressing hCCR5, 1 nM huRANTES; scFv format [3]: 9.4 nM
